Reference: patent publication US20120065123A1 (published 2012)
Where no end group is shown, it is not given here.

T1: Gal80 (UniProt P04387 1-435, limits assumed)
T1 construct: Cy3/Cy5 or otherwise fluorescently labelled on arrays; immobilised in SPR and ELISA
T1 sequence (looked up): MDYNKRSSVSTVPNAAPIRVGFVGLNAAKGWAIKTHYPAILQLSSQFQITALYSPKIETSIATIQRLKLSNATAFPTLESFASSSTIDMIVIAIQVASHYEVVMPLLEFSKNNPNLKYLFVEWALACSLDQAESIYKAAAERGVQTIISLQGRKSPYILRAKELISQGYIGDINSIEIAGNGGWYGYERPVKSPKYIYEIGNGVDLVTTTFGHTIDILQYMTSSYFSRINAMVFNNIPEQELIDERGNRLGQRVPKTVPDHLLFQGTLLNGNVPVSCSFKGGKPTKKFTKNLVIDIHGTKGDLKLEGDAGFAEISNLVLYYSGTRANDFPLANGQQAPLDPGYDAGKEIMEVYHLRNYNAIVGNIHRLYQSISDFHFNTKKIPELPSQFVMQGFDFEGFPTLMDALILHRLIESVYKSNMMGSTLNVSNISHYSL

B1: transferrin binding peptide of FIG. 60I (peptide)
peptide: AMMRMDMAGLNKIVFHQGSC
notes: Unpurified library peptide
B2: transferrin binding peptide of FIG. 60J (peptide)
peptide: DRDTPWETTNKTEEGIEGSC
notes: Unpurified library peptide
B3: transferrin binding peptide of FIG. 60K (peptide)
peptide: QENDQQSFGLGGMMGQAGSC
notes: Unpurified library peptide
B4: transferrin binding peptide of FIG. 60L (peptide)
peptide: TEDNDYMVVSMVVTMEPGSC
notes: Unpurified library peptide
B5: BP1 on dsDNA (peptide)
peptide: GTEKGTSGWLKTGSC
modifications: chain 1 pos 15: Cys thiol joined via SMCC maleimide to an amine-modified cytosine of the double-stranded DNA linker, which the letters cannot carry
notes: also called BP1 alone conjugated to DNA linker
B6: BP2 on dsDNA (peptide)
peptide: EGEWTEGKLSLRGSC
modifications: chain 1 pos 15: Cys thiol joined via SMCC maleimide to an amine-modified cytosine of the double-stranded DNA linker, which the letters cannot carry
notes: also called BP2 alone conjugated to DNA linker
B7: transferrin binding peptide of FIG. 60B (peptide)
peptide: NIRMLLRFTVFPAQKLIGSC
notes: Unpurified library peptide
B8: transferrin binding peptide of FIG. 60C (peptide)
peptide: WMDDIDAPQDEWWVFHHGSC
notes: Unpurified library peptide
B9: transferrin binding peptide of FIG. 60D (peptide)
peptide: DFLWSKSGILSHASWNHGSC
notes: Unpurified library peptide
B10: transferrin binding peptide of FIG. 60F (peptide)
peptide: KMRTITYYHLQAILKQRGSC
notes: Unpurified library peptide
B11: transferrin binding peptide of FIG. 60G (peptide)
peptide: DNSRRSAKQRIFMHVDLGSC
notes: Unpurified library peptide
B12: BP2 variant EGEITEGKKSKLGSC (peptide)
peptide: EGEITEGKKSKLGSC
B13: BP2 variant EGEDTEGKKSKEGSC (peptide)
peptide: EGEDTEGKKSKEGSC
B14: BP2 variant EGEDTEGKKSKGGSC (peptide)
peptide: EGEDTEGKKSKGGSC
B15: BP2 variant EGEDTEGKKSKIGSC (peptide)
peptide: EGEDTEGKKSKIGSC
B16: BP2 variant EGEDTEGKKSKLGSC (peptide)
peptide: EGEDTEGKKSKLGSC
B17: BP2 variant EGEDTEGKKSKRGSC (peptide)
peptide: EGEDTEGKKSKRGSC
B18: BP2 variant EGEDTEGKKSKTGSC (peptide)
peptide: EGEDTEGKKSKTGSC
B19: BP2 variant EGEITEGKKSKEGSC (peptide)
peptide: EGEITEGKKSKEGSC
B20: BP2 variant EGEITEGKKSKGGSC (peptide)
peptide: EGEITEGKKSKGGSC
B21: BP2 variant EGEITEGKKSKIGSC (peptide)
peptide: EGEITEGKKSKIGSC
notes: Made in place on a glass slide by light-directed synthesis
B22: BP2 variant EGEITEGKKSKRGSC (peptide)
peptide: EGEITEGKKSKRGSC
B23: BP2 variant EGEITEGKKSKSGSC (peptide)
peptide: EGEITEGKKSKSGSC
B24: BP2 variant EGEITEGKKSKTGSC (peptide)
peptide: EGEITEGKKSKTGSC
B25: BP2 variant EGEKTEGKKSKEGSC (peptide)
peptide: EGEKTEGKKSKEGSC
B26: BP2 variant EGEKTEGKKSKGGSC (peptide)
peptide: EGEKTEGKKSKGGSC
B27: BP2 variant EGEKTEGKKSKLGSC (peptide)
peptide: EGEKTEGKKSKLGSC
B28: BP2 variant EGEKTEGKKSKTGSC (peptide)
peptide: EGEKTEGKKSKTGSC
B29: BP2 variant EGEWTEGKKSKEGSC (peptide)
peptide: EGEWTEGKKSKEGSC
B30: BP2 variant EGEWTEGKKSKGGSC (peptide)
peptide: EGEWTEGKKSKGGSC
B31: BP2 variant EGEWTEGKKSKIGSC (peptide)
peptide: EGEWTEGKKSKIGSC
B32: BP2 variant EGEWTEGKKSKLGSC (peptide)
peptide: EGEWTEGKKSKLGSC
B33: BP2 variant EGEWTEGKKSKRGSC (peptide)
peptide: EGEWTEGKKSKRGSC
B34: BP2 variant EGEWTEGKKSKTGSC (peptide)
peptide: EGEWTEGKKSKTGSC
B35: BP2 variant EGEITEGKGSKKGSC (peptide)
peptide: EGEITEGKGSKKGSC
B36: BP2 variant EGEITEGKLSKKGSC (peptide)
peptide: EGEITEGKLSKKGSC
B37: linker-optimized BP1/BP2 DNA-linked synbody (BP1 on the template strand, BP2 at position 13 from the 3' end of the variable strand) (designed binder)
peptide 1: GTEKGTSGWLKTGSC
peptide 2: EGEWTEGKLSLRGSC
modifications: not fully specified (some residues, bridges); also: two DNA strands, each joined to a peptide C-terminal Cys through SMCC, double-stranded DNA linker
notes: Two peptides held by a double-stranded DNA linker; for ELISA a third psoralen-crosslinked strand carried biotin and streptavidin-HRP; also called gal80 synbody; the linker-optimized synbody

Tests used:
[1] = biological target: T2, pooled human transferrin (Sigma), biotinylated (human, UniProt P02787 20-698, biotinylated at amines with NHS-LC-LC-Biotin); test: SPR (Biacore A-100), biotinylated transferrin captured on Neutravidin, unpurified peptide injected for 60 s [i]
T2 construct: Captured on Neutravidin on a CM5 chip (Biacore A-100)
From the text: (§1) A Biacore A-100 Surface Plasmon Resonance (SPR) system was used to measure the binding response of each peptide to several different target proteins immobilized on a gold surface. The A-100 has four different flow cells and within each flow cell are five addressable spots. Therefore four different proteins and a negative control reference can be used per flow cell. Depending on the purpose of the assay, up to 16 different target proteins can be immobilized on a single SPR chip. The instrument is equipped to evaluate up to 10 384-well plates unattended and can process approximately four 384-well plates per day. Sensorgrams are collected from each immobilized protein, so a binding profile for each analyte versus each of the protein targets is generated for each injection. Target proteins were immobilized using a biotin capture approach in which a CM5 chip was activated using standard amine coupling chemistry and Neutravidin was covalently coupled to the chip. Each biotinylated protein was injected over a single spot and the amount of protein captured was measured.

[2] = biological target: T2, pooled human transferrin (Sigma), …; test: SPR (Biacore A-100), biotinylated transferrin captured on Neutravidin, unpurified peptide injected for 60 s [j]
[3] = biological target: T2, pooled human transferrin (Sigma), …; test: SPR (Biacore A-100), biotinylated transferrin captured on Neutravidin, unpurified peptide injected for 60 s [k]
[4] = biological target: T2, pooled human transferrin (Sigma), …; test: SPR (Biacore A-100), biotinylated transferrin captured on Neutravidin, unpurified peptide injected for 60 s [l]
From the text: as §1

Gal80 [5] = biological target: T1, Gal80; test: SPR with gal80 immobilised on the chip; Kd from on and off rates
[6] = biological target: T2, pooled human transferrin (Sigma), …; test: SPR (Biacore A-100), biotinylated transferrin captured on Neutravidin, unpurified peptide injected for 60 s [b]
[7] = biological target: T2, pooled human transferrin (Sigma), …; test: SPR (Biacore A-100), biotinylated transferrin captured on Neutravidin, unpurified peptide injected for 60 s [c]
From the text: as §1

[8] = biological target: T2, pooled human transferrin (Sigma), …; test: SPR (Biacore A-100), biotinylated transferrin captured on Neutravidin, unpurified peptide injected for 60 s [d]
[9] = biological target: T2, pooled human transferrin (Sigma), …; test: SPR (Biacore A-100), biotinylated transferrin captured on Neutravidin, unpurified peptide injected for 60 s [f]
[10] = biological target: T2, pooled human transferrin (Sigma), …; test: SPR (Biacore A-100), biotinylated transferrin captured on Neutravidin, unpurified peptide injected for 60 s [g]
Gal80 [11] = biological target: T1, Gal80; test: light-directed peptide array, 25 pM labelled GAL80 with 1 mg/mL E. coli lysate; against template BP2
Procedure: Variant peptides in the array were designed to contain both invariable and variable positions. Invariable positions were coupled using standard Fmoc solid-phase synthesis protocols. Briefly, the Fmoc protecting group was removed with 20% piperidine in DMF for 20 minutes. After deprotection, the next Fmoc amino acid was coupled to the N-terminus of the peptide chain (0.1 M Fmoc amino acid, 0.1 M HATU, 0.4 M DIPEA in DMF). Amino acid coupling times were typically 60 minutes. Variable positions in the peptide were coupled using light-directed chemistry. First, the N-terminal Fmoc group was removed from all peptides using 20% piperidine in DMF and the photolabile protecting group MeNPOC—Cl was coupled to the liberated N-terminal amines for 30 minutes. The array was then immersed in photolysis solution containing 30% β-mercaptoethanol, 7% DIPEA in acetonitrile. A photolithographic mask was projected on the substrate using a Digital Mirror Device, to selectively remove the MeNPOC protecting group in the illuminated regions. The substituted FMOC amino acid was added and allowed to couple to the selectively deprotected regions. After coupling, photodeprotection was repeated for different regions on the array and the next amino acid was coupled. This photodeprotection/coupling cycle was repeated for all substituted amino acids at a particular position in the peptide. After all peptides on the array are grown to the desired length a final side-chain deprotection is done using 95% TFA, 2.5% TIPS, 2.5% H₂O for 1 hour.
The chemically diverse set of 10 amino acids {I, D, W, L, E, G, T, S, K, R} were selected as the amino acids to substitute into the four variable positions for a total of 10,000 unique variant peptides. Three replicates were included in the array to produce a total of 30,000 array features. The variant array (including the lead peptide) was synthesized using light-directed synthesis described above.

Gal80 [12] = biological target: T1, Gal80; test: SPR, synbody in solution, surface-bound Gal80; SPR, synbody in solution, surface-bound Gal80
Gal80 [13] = biological target: T1, Gal80; test: gel shift assay; gel shift assay

T2 sequence (P02787 20-698 limits assumed): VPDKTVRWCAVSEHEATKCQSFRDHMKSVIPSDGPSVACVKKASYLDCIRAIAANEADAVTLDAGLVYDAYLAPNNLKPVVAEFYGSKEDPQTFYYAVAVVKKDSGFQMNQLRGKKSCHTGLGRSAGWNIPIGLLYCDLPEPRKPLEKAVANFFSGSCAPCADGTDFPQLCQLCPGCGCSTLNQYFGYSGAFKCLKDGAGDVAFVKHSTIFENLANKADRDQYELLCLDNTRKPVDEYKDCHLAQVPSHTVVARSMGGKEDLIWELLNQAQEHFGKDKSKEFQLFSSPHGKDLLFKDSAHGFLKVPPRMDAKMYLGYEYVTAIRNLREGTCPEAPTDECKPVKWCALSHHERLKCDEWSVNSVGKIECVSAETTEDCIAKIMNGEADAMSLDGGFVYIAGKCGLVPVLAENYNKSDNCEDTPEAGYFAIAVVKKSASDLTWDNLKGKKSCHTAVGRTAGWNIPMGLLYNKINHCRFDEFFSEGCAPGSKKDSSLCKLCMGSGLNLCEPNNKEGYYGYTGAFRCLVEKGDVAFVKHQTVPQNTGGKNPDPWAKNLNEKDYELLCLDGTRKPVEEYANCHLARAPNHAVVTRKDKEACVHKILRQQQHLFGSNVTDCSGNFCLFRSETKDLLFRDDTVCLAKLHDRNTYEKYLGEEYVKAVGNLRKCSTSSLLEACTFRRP

Row | Binder | Fold Enhancement (Gal80 [11]) [fold] | further results
1 | B1 |  | binding result [1]: binds
2 | B2 |  | binding result [2]: binds
3 | B3 |  | binding result [3]: binds
4 | B4 |  | binding result [4]: binds
5 | B5 |  | Kd (Gal80 [5]): 482 nM
6 | B6 |  | Kd (Gal80 [5]): 982 nM
7 | B7 |  | binding result [6]: binds
8 | B8 |  | binding result [7]: binds
9 | B9 |  | binding result [8]: binds
10 | B10 |  | binding result [9]: binds
11 | B11 |  | binding result [10]: binds
12 | B12 | 11.1 | 
13 | B13 | 10.1 | 
14 | B14 | 10.8 | 
15 | B15 | 10.4 | 
16 | B16 | 10.4 | 
17 | B17 | 10.4 | 
18 | B18 | 10.2 | 
19 | B19 | 10.9 | 

Row | Binder | Fold Enhancement (Gal80 [11]) [fold] | further results
20 | B20 | 10.8 | 
21 | B21 | 11.3 | 
22 | B22 | 10.5 | 
23 | B23 | 9.91 | 
24 | B24 | 10.6 | 
25 | B25 | 9.7 | 
26 | B26 | 9.24 | 
27 | B27 | 9.81 | 
28 | B28 | 8.5 | 
29 | B29 | 10.7 | 
30 | B30 | 11.1 | 
31 | B31 | 10.4 | 
32 | B32 | 10.7 | 
33 | B33 | 11 | 
34 | B34 | 10.5 | 
35 | B35 | 9.87 | 
36 | B36 | 9.72 | 
37 | B37 |  | Kd (Gal80 [12]): 91 nM; Kd (Gal80 [13]): ~100 nM
